Data from patent US20230265215A1 (OMEROS, published 2023).

What was measured:
MASP-3 = target: T1, MASP-3 (human, UniProt P48740-2 20-728, limits assumed); assay: solid phase ELISA, against human MASP-2 as reference
T1 construct: Species read from 'Recombinant human MASP-2 or C1r, C1s, CFD, MASP-1 and MASP-3'
T1 sequence (looked up): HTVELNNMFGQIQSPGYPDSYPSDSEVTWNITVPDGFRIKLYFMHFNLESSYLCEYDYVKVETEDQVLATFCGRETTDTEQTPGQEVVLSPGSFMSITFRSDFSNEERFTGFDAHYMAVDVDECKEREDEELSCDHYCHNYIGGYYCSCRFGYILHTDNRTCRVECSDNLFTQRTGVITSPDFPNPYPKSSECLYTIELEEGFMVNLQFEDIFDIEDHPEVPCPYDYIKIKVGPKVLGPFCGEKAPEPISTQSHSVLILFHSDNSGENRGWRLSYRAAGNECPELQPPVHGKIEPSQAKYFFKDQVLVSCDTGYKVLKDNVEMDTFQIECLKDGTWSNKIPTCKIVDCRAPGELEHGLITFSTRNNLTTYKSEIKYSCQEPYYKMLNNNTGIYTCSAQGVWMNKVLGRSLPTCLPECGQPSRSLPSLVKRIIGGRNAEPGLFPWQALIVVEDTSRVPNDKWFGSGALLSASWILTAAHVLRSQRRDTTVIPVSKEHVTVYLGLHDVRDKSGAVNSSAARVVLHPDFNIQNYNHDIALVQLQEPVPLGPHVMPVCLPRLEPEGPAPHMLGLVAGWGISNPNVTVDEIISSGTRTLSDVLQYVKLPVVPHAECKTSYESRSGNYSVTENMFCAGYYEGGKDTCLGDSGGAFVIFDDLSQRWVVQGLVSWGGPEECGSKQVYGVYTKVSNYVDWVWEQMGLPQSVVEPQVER
Text: (§1) The apparent dissociation constant (KD) was estimated by nonlinear regression using a 4-parameter logistic model.
(§2) Fold selectivity calculated as KD(related serine protease)/mean KD(MASP-2).

CFD [1] = target: T2, CFD (human, UniProt P00746 26-253, limits assumed); assay: as above
T2 construct: Species read from 'Recombinant human MASP-2 or C1r, C1s, CFD, MASP-1 and MASP-3'; also called factor D; complement factor D
Text: as §1, §2

C1s [2] = target: T3, C1s (human, UniProt P09871 16-688, limits assumed); assay: as above
T3 construct: Species read from 'Recombinant human MASP-2 or C1r, C1s, CFD, MASP-1 and MASP-3'
T3 sequence (looked up): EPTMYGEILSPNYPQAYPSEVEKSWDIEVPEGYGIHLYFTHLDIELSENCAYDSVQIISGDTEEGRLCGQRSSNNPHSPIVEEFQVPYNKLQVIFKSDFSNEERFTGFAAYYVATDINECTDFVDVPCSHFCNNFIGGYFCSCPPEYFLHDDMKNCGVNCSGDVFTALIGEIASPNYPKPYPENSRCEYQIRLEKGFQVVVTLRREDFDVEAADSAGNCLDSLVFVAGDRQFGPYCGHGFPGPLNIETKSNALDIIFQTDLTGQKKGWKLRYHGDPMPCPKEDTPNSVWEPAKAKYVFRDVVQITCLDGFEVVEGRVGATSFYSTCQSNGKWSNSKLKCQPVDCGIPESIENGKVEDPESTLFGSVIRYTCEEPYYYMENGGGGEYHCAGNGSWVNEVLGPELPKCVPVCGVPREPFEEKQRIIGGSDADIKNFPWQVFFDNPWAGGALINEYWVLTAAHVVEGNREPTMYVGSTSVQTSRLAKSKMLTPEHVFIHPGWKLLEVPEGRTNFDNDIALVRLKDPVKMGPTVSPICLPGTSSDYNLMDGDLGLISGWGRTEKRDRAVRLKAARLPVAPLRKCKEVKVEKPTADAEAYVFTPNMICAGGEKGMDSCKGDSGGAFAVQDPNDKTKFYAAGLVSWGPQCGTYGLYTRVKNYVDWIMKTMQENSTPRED
Text: as §1, §2

MASP-1 = target: T4, MASP-1 (human, UniProt P48740 20-699, limits assumed); assay: solid phase ELISA, immobilized protease, mean apparent KD of two lots
T4 construct: Species read from 'Recombinant human MASP-2 or C1r, C1s, CFD, MASP-1 and MASP-3'
T4 sequence (looked up): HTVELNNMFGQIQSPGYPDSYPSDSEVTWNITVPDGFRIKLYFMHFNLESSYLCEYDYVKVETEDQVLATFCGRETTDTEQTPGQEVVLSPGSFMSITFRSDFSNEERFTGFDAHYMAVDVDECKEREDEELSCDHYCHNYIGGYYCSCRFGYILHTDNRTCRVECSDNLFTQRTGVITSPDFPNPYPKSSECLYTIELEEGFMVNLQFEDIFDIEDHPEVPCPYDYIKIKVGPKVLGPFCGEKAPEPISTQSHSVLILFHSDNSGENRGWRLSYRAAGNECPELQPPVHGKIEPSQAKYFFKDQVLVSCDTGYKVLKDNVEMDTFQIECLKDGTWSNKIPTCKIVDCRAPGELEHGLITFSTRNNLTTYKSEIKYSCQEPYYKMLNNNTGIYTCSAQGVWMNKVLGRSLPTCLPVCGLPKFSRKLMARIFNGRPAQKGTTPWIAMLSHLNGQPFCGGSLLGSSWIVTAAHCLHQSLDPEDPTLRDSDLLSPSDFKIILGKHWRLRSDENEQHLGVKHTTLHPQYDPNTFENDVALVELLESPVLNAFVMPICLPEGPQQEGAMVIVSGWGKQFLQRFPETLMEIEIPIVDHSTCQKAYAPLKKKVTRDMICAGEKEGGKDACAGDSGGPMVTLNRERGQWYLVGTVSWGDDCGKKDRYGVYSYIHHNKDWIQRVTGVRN
Text: as §1, §2

CFD [3] = target: T2, CFD; assay: as above
Text: as §1, §2

C1s [4] = target: T3, C1s; assay: as above
Text: as §1, §2

T2 sequence (P00746 26-253 limits assumed): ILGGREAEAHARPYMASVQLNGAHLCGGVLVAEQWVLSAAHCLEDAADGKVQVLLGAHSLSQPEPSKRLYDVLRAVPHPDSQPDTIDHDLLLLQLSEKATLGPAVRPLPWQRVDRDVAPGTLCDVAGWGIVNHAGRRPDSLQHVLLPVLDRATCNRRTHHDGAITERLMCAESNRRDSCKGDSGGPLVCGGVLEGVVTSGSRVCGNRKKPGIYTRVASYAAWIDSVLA

Fold selectivity (KD related serine protease / mean KD MASP-2) (MASP-3): > 2000 fold | Fold selectivity (KD related serine protease / mean KD MASP-2) (CFD [1]): > 2000 fold | Fold selectivity (KD related serine protease / mean KD MASP-2) (C1s [2]): > 2000 fold | Kd (MASP-1): > 100 µg/mL | Kd (CFD [3]): > 100 µg/mL | Kd (C1s [4]): > 100 µg/mL
B1: mAb OMS858 (humanized anti-MASP-2 antibody) (antibody, V domains shown)
VH: QVQLVQSGAEVKKPGASVKVSCKASGYTFTNHHMHWLRQAPGQGLEWIGDIDASDSETHYIEKFKDRATLTIDKSSSTAYMELSSLRSEDTAVYYCARGDITTTLRYFDVWGQGTLVTVSS
VL: DIQLTQSPSSLSASVGDRVTITCSASSSVRYMYWYQQKPGKAPKLLIYDTSNLASGVPSRFSGSGSGTDNTLTISSLQPEDFATYYCQQWSSYPLTFGQGTKVEIKR
notes: also called antibody OMS858; biotinylated OMS858
